Laboratory results from IntAct's records for PubMed 29892012.

B1: Palmitoyltransferase ZDHHC22 (Homo sapiens), Q8N966 (parent)
chain: MLALRLLNVVAPAYFLCISLVTFVLQLFLFLPSMREDPAAARLFSPALLHGALFLFLSANALGNYVLVIQNSPDDLGACQGASARKTPCPSPSTHFCRVCARVTLRHDHHCFFTGNCIGSRNMRNFVLFCLYTSLACLYSMVAGVAYISAVLSISFAHPLAFLTLLPTSISQFFSGAVLGSEMFVILMLYLWFAIGLACAGFCCHQLLLILRGQTRHQVRKGVAVRARPWRKNLQEVFGKRWLLGLLVPMFNVGSESSKQQDK
partner: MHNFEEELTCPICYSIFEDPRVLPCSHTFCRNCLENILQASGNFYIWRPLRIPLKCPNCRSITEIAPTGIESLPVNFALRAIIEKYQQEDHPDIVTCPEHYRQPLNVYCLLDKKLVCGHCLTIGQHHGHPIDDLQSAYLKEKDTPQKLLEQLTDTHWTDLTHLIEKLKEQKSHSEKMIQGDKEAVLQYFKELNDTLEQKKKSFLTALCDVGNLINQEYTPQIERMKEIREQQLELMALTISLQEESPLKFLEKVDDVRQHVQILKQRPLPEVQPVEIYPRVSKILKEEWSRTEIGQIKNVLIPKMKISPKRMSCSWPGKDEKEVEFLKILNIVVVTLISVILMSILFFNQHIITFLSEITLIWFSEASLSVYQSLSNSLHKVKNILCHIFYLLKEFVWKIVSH
B2: Forkhead box protein S1 (Homo sapiens), O43638 (parent)
chain: MQQQPLPGPGAPTTEPTKPPYSYIALIAMAIQSSPGQRATLSGIYRYIMGRFAFYRHNRPGWQNSIRHNLSLNECFVKVPRDDRKPGKGSYWTLDPDCHDMFEHGSFLRRRRRFTRQTGAEGTRGPAKARRGPLRATSQDPGVPNATTGRQCSFPPELPDPKGLSFGGLVGAMPASMCPATTDGRPRPPMEPKEISTPKPACPGELPVATSSSSCPAFGFPAGFSEAESFNKAPTPVLSPESGIGSSYQCRLQALNFCMGADPGLEHLLASAAPSPAPPTPPGSLRAPLPLPTDHKEPWVAGGFPVQGGSGYPLGLTPCLYRTPGMFFFE
B3: Vacuolar protein-sorting-associated protein 25 (Homo sapiens), Q9BRG1 (parent)
chain: MAMSFEWPWQYRFPPFFTLQPNVDTRQKQLAAWCSLVLSFCRLHKQSSMTVMEAQESPLFNNVKLQRKLPVESIQIVLEELRKKGNLEWLDKSKSSFLIMWRRPEEWGKLIYQWVSRSGQNNSVFTLYELTNGEDTEDEEFHGLDEATLLRALQALQQEHKAEIITVSDGRGVKFF
partner: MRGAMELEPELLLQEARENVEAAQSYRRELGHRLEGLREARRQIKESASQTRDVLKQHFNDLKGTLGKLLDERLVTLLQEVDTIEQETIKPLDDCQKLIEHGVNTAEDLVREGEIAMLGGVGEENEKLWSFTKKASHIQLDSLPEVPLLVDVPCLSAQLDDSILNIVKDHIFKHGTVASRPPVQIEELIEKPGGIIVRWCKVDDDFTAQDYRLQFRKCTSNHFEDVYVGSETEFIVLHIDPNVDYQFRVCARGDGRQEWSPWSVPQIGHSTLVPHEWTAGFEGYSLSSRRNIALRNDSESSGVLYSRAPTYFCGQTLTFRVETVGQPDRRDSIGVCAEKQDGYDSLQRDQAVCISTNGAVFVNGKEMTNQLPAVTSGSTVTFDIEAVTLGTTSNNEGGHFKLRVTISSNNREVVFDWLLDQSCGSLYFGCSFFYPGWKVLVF
B4: Kinetochore protein NDC80 homolog (Homo sapiens), O14777 (parent)
chain: MKRSSVSSGGAGRLSMQELRSQDVNKQGLYTPQTKEKPTFGKLSINKPTSERKVSLFGKRTSGHGSRNSQLGIFSSSEKIKDPRPLNDKAFIQQCIRQLCEFLTENGYAHNVSMKSLQAPSVKDFLKIFTFLYGFLCPSYELPDTKFEEEVPRIFKDLGYPFALSKSSMYTVGAPHTWPHIVAALVWLIDCIKIHTAMKESSPLFDDGQPWGEETEDGIMHNKLFLDYTIKCYESFMSGADSFDEMNAELQSKLKDLFNVDAFKLESLEAKNRALNEQIARLEQEREKEPNRLESLRKLKASLQGDVQKYQAYMSNLESHSAILDQKLNGLNEEIARVELECETIKQENTRLQNIIDNQKYSVADIERINHERNELQQTINKLTKDLEAEQQKLWNEELKYARGKEAIETQLAEYHKLARKLKLIPKGAENSKGYDFEIKFNPEAGANCLVKYRAQVYVPLKELLNETEEEINKALNKKMGLEDTLEQLNAMITESKRSVRTLKEEVQKLDDLYQQKIKEAEEEDEKCASELESLEKHKHLLESTVNQGLSEAMNELDAVQREYQLVVQTTTEERRKVGNNLQRLLEMVATHVGSVEKHLEEQIAKVDREYEECMSEDLSENIKEIRDKYEKKATLIKSSEE
partner: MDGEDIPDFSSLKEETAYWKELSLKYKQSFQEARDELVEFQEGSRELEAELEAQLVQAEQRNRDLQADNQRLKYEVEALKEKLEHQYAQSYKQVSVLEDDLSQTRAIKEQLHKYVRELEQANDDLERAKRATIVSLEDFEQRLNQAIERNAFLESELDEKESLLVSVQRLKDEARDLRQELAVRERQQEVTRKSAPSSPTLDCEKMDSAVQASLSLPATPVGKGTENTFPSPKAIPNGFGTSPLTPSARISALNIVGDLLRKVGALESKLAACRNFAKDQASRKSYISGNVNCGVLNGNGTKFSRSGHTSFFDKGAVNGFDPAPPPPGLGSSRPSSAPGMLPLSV
B5: Keratin, type I cuticular Ha8 (Homo sapiens), O76015 (parent)
chain: MTSSYSSSSCPLGCTMAPGARNVSVSPIDIGCQPGAEANIAPMCLLANVAHANRVRVGSTPLGRPSLCLPPTCHTACPLPGTCHIPGNIGICGAYGENTLNGHEKETMQFLNDRLANYLEKVRQLEQENAELEATLLERSKCHESTVCPDYQSYFHTIEELQQKILCSKAENARLIVQIDNAKLAADDFRIKLESERSLRQLVEADKCGTQKLLDDATLAKADLEAQQESLKEEQLSLKSNHEQEVKILRSQLGEKLRIELDIEPTIDLNRVLGEMRAQYEAMLETNRQDVEQWFQAQSEGISLQDMSCSEELQCCQSEILELRCTVNALEVERQAQHTLKDCLQNSLCEAEDRFGTELAQMQSLISNVEEQLSEIRADLERQNQEYQVLLDVKTRLENEIATYRNLLESEDCKLPCNPCSTSPSCVTAPCAPRPSCGPCTTCGPTCGASTTGSRF
partner: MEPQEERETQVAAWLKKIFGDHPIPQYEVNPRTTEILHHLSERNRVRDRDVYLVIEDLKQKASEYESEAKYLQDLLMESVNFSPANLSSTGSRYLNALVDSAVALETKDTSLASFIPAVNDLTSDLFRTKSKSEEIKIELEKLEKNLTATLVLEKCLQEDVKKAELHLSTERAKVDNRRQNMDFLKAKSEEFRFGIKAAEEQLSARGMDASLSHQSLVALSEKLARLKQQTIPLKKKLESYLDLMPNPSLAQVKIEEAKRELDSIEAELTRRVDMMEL
B6: Solute carrier family 35 member C2 (Homo sapiens), Q9NQQ7 (parent)
chain: MGRWALDVAFLWKAVLTLGLVLLYYCFSIGITFYNKWLTKSFHFPLFMTMLHLAVIFLFSALSRALVQCSSHRARVVLSWADYLRRVAPTALATALDVGLSNWSFLYVTVSLYTMTKSSAVLFILIFSLIFKLEELRAALVLVVLLIAGGLFMFTYKSTQFNVEGFALVLGASFIGGIRWTLTQMLLQKAELGLQNPIDTMFHLQPLMFLGLFPLFAVFEGLHLSTSEKIFRFQDTGLLLRVLGSLFLGGILAFGLGFSEFLLVSRTSSLTLSIAGIFKEVCTLLLAAHLLGDQISLLNWLGFALCLSGISLHVALKALHSRGDGGPKALKGLGSSPDLELLLRSSQREEGDNEEEEYFVAQGQQ
B7: Pre-B-cell leukemia transcription factor 4 (Homo sapiens), Q9BYU1 (parent)
chain: MAAPPRPAPSPPAPRRLDTSDVLQQIMAITDQSLDEAQARKHALNCHRMKPALFSVLCEIKEKTVVSIRGIQDEDPPDAQLLRLDNMLLAEGVCRPEKRGRGGAVARAGTATPGGCPNDNSIEHSDYRAKLSQIRQIYHSELEKYEQACREFTTHVTNLLQEQSRMRPVSPKEIERMVGAIHGKFSAIQMQLKQSTCEAVMTLRSRLLDARRKRRNFSKQATEVLNEYFYSHLNNPYPSEEAKEELARKGGLTISQVSNWFGNKRIRYKKNMGKFQEEATIYTGKTAVDTTEVGVPGNHASCLSTPSSGSSGPFPLPSAGDAFLTLRTLASLQPPPGGGCLQSQAQGSWQGATPQPATASPAGDPGSINSSTSN
partner: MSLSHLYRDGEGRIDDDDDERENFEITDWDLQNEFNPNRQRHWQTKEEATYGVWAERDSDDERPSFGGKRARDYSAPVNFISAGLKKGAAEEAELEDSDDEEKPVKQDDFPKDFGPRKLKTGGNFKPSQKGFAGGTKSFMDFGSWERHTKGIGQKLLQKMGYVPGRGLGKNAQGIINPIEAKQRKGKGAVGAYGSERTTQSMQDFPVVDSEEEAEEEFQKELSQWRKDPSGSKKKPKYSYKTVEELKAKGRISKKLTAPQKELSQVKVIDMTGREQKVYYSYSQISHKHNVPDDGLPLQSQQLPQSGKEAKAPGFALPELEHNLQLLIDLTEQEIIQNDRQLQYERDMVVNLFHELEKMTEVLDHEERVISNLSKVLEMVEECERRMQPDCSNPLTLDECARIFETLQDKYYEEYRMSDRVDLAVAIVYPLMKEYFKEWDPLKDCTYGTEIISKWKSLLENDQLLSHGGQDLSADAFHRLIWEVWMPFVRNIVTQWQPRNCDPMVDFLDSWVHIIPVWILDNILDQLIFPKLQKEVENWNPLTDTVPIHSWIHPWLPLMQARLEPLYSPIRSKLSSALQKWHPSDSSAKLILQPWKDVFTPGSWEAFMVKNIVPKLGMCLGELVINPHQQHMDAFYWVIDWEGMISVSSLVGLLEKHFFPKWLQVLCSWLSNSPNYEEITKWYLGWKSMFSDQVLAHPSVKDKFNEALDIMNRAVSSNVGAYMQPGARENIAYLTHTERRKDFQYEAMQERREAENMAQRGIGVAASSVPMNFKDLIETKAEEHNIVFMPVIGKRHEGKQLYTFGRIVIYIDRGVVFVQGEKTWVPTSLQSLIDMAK
B8: Inositol polyphosphate 5-phosphatase K (Homo sapiens), Q9BT40 (parent)
chain: MSSRKLSGPKGRRLSIHVVTWNVASAAPPLDLSDLLQLNNRNLNLDIYVIGLQELNSGIISLLSDAAFNDSWSSFLMDVLSPLSFIKVSHVRMQGILLLVFAKYQHLPYIQILSTKSTPTGLFGYWGNKGGVNICLKLYGYYVSIINCHLPPHISNNYQRLEHFDRILEMQNCEGRDIPNILDHDLIIWFGDMNFRIEDFGLHFVRESIKNRCYGGLWEKDQLSIAKKHDPLLREFQEGRLLFPPTYKFDRNSNDYDTSEKKRKPAWTDRILWRLKRQPCAGPDTPIPPASHFSLSLRGYSSHMTYGISDHKPVSGTFDLELKPLVSAPLIVLMPEDLWTVENDMMVSYSSTSDFPSSPWDWIGLYKVGLRDVNDYVSYAWVGDSKVSCSDNLNQVYIDISNIPTTEDEFLLCYYSNSLRSVVGISRPFQIPPGSLREDPLGEAQPQI
B9: Coiled-coil domain-containing protein 120 (Homo sapiens), Q96HB5-4 (parent)
chain: MRREPRYQGQVGPDIHTDSERTLSSHQPRPLDSTKMEVKGQLISSPTFNAPAALFGEAAPQVKSERLRGLLDRQRTLQEALSLKLQELRKVCLQEAELTGQLPPECPLEPGERPQLVRRRPPTARAYPPPHPNQAHHSLCPAEELALEALEREVSVQQQIAAAARRLALAPDLSTEQRRRRRQVQADALRRLHELEEQLRDVRARLGLPVLPLPQPLPLSTGSVITTQGVCLGMRLAQLSQEDVVLHSESSSLSESGASHDNEEPHGCFSLAERPSPPKAWDQLRAVSGGSPERRTPWKPPPSDLYGDLKSRRNSVASPTSPTRSLPRSASSFEGRSVPATPVLTRGAGPQLCKPEGLHSRQWSGSQDSQMGFPRADPASDRASLFVARTRRSNSSEALLVDRAAGGGAGSPPAPLAPSASGPPVCKSSEVLYERPQPTPAFSSRTAGPPDPPRAARPSSAAPASRGAPRLPPVCGDFLLDYSLDRGLPRSGGGTGWGELPPAAEVPGPLSRRDGLLTMLPGPPPVYAADSNSPLLRTKDPHTRATRTKPCGLPPEAAEGPEVHPNPLLWMPPPTRIPSAGERSGHKNLALEGLRDWYIRNSGLAAGPQRRPVLPSVGPPHPPFLHARCYEVGQALYGAPSQAPLPHSRSFTAPPVSGRYYADFLYPPELSARLSDLTLEGEQSSSSDTQTPGTLV
partner: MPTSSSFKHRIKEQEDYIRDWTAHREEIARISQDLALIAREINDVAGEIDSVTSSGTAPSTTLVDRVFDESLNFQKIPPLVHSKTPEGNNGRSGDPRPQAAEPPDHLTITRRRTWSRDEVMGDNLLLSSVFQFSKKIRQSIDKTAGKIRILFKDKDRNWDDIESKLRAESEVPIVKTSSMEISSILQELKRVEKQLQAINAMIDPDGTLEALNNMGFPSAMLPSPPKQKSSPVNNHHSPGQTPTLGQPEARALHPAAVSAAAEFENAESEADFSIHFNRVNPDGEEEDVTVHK

Variants of: B1
Conditions: with tri59_human TRIM59, Q8IWR1

Row | effect of a mutation on the interaction | Variant
1 | with no effect | L209F

Variants of: B2
Conditions: with rbpms_human RBPMS

Row | effect of a mutation on the interaction | Variant
2 | with no effect | T147M

Variants of: B3
Conditions: with crlf3_human CRLF3, Q8IUI8

Row | effect of a mutation on the interaction | Variant
3 | with no effect | P58Q

Variants of: B4
Conditions: with ndel1_human NDEL1, Q9GZM8

Row | effect of a mutation on the interaction | Variant
4 | with no effect | K288E

Variants of: B5
Conditions: with haus1_human HAUS1, Q96CS2

Row | effect of a mutation on the interaction | Variant
5 | with no effect | N270K

Variants of: B5
Conditions: with haus1_human HAUS1, Q96CS2
Remark: another data set of the same source

Row | effect of a mutation on the interaction | Variant
6 | with no effect | D306A

Variants of: B6
Conditions: with creb3_human CREB3, O43889
Sequence of creb3_human CREB3, O43889 (O43889 whole entry): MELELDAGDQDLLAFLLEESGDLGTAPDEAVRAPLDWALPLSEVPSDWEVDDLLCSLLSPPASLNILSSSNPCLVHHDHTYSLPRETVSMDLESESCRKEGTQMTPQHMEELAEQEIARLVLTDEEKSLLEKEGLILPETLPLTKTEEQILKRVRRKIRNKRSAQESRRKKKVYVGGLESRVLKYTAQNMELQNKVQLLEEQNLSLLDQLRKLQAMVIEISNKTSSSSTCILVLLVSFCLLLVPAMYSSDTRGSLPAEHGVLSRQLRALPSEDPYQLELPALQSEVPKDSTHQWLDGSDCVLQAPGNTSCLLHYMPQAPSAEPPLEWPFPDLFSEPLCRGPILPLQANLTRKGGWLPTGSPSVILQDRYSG

Row | effect of a mutation on the interaction | Variant
7 | with no effect | G176S

Variants of: B7
Conditions: with tfp11_human TFIP11, Q9UBB9

Row | effect of a mutation on the interaction | Variant
8 | with no effect | A247T

Variants of: B8
Conditions: with ar6p1_human ARL6IP1, Q15041
Sequence of ar6p1_human ARL6IP1, Q15041 (Q15041 whole entry): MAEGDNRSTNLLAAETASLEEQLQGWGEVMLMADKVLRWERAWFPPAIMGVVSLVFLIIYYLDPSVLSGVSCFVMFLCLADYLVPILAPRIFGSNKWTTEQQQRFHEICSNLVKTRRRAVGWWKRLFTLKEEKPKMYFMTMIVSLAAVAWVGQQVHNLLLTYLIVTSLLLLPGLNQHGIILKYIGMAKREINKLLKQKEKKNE

Row | effect of a mutation on the interaction | Variant
9 | with no effect | R437K

Variants of: B9
Conditions: with CEP170P1, Q96L14

Row | effect of a mutation on the interaction | Variant
10 | with no effect | R346W
